Source: patent publication US20190292247A1

Columns and labels:
Assay in all cases: ELISA on immobilized antigen, streptavidin-HRP detection; value is the average over oligomer, monomer and fibril
[1] = target: amyloid beta 1-42 monomer (UniProt P05067)
[2] = target: amyloid beta 1-42 oligomer (UniProt P05067)
amyloid beta 1-42 fibril = amyloid beta 1-42 fibril (UniProt P05067)

Measured: EC50

Chain of amyloid beta 1-42 monomer (P05067 672-713 limits assumed): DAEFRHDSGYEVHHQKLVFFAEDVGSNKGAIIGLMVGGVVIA
Chain of amyloid beta 1-42 oligomer (P05067 672-713 limits assumed): as above
Chain of amyloid beta 1-42 fibril (P05067 672-713 limits assumed): as above

6E10 antibody (biotinylated)
0.031 µg/mL: all assays above
